For test [1], the target named is T1, human Sortilin expressed on 293 / HEK293T cells (human, UniProt Q99523 78-830).
T1 construct: full-length recombinant human Sortilin; also called hSort; SORT1
In words: FACS, 293 cells.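 Also: antibodies at 10 µg/ml bound to cells for 1 h on ice, detected with PE-labelled anti-human secondary antibody by flow cytometry, reported as mean fluorescence intensity.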 Background: In flow cytometry, cells or beads pass a laser one at a time.
Method: (§1) Cells were harvested, plated at 10⁵/ml in a 96 well plate, washed, and incubated in 100 μl PBS containing 10 μg/ml Mab and 2% FBS for 1 hour in ice. Cells were then washed twice and incubated in 100 μl PBS+2% FBS containing 5 μg/ml PE-conjugated anti-human secondary antibody for 30 minutes in ice. Cells were washed twice in cold PBS and data was acquired on a BD FACS Canto. Data analysis and calculation of MFI values was performed with FlowJo (TreeStar) software version 10.0.7.

For test [2], the target named is T2, mouse Sortilin expressed on 293 / HEK293T cells (mouse, UniProt Q6PHU5 74-825).
T2 construct: full-length recombinant mouse Sortilin; also called mSort; msSort
The test is described as follows: FACS, 293 cells.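 Also: antibodies at 10 µg/ml bound to cells for 1 h on ice, detected with PE-labelled anti-human secondary antibody by flow cytometry, reported as mean fluorescence intensity.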
Method: as §1

For test [3], the target named is T3, mouse Sortilin Fc fusion protein (mouse; human, UniProt Q6PHU5 74-754).
T3 construct: whole entry named; also called mSort-Fc
The test is described as follows: ForteBio, avid. (In general: BLI is a label-free optical method that tracks binding on a fibre tip over time.)

Test [4] deals with T4, human Sortilin Fc fusion protein (human, UniProt Q99523 78-755).
T4 construct: whole entry named; also called hSort-Fc
In words: ForteBio, avid.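 Also: whole IgG captured on AHQ sensors, then contacted with Sortilin Fc fusion antigen at 100 nM, followed by an off-rate phase in buffer.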

Test [5] deals with T2, mouse Sortilin expressed on 293 / …. In words: FACS, HEK293T + msSort.
Method: (§2) Antibodies were diluted in FACS buffer (PBS+2% FBS+0.01% NaAzide). After incubation on ice for 1 h, cells were washed three times in FACS buffer and incubated with anti-human PE conjugated secondary antibody (BD Biosciences, 1:100 dilution) for 30 min on ice. Then cells were washed twice in 200 ul FACS buffer, and subsequently analyzed on a FACS Canto or iQE FACS screening instrument (Intellicyt Corp).
In test [6] the target is T1, human Sortilin expressed on 293 / …. In words: FACS, HEK293T + hSort.
Method: as §2
In test [7] the target is T5, biotinylated mouse Sortilin monomer (mouse, UniProt Q6PHU5 74-754, limits assumed, biotinylated).
T5 construct: also called Bt-msSort
In words: MSD-SET, Fab.
Method: Antibodies (20 nM in PBS) were coated onto standard bind MSD-ECL plates overnight at 4° C. or at room temperature for 30 min. Plates were then blocked with 1% BSA for 30 min with shaking at 700 rpm, followed by three washes with wash buffer (PB SF+0.05% Tween 20). SET samples were applied and incubated on the plates for 150 s with shaking at 700 rpm followed by one wash. Antigen captured on a plate was detected with 250 ng/ml sulfotag-labeled streptavidin in PBSF by incubation on the plate for 3 min. The plates were washed three times with wash buffer and then read on the MSD Sector Imager 2400 instrument using 1× Read Buffer T with surfactant. The percent free antigen was plotted as a function of titrated antibody in Prism and fit to a quadratic equation to extract the KD. To improve throughput, liquid handling robots were used throughout MSD-SET experiments, including SET sample preparation.

In test [8] the target is T5, biotinylated mouse Sortilin monomer. In words: ForteBio, Fab.
Method: The affinity of the anti-Sortilin antibodies was determined by measuring their KD by ForteBio and MSD. […] Briefly, ForteBio affinity measurements were performed by loading immunoglobulins (IgGs) on-line onto AHQ sensors. Sensors were equilibrated off-line in assay buffer for 30 min and then monitored on-line for 60 seconds for baseline establishment. For avid binding measurement, sensors with loaded IgGs were exposed to 100 nM antigen (human or mouse Sortilin Fc fusion) for 3 min, afterwards they were transferred to assay buffer for 3 min for off-rate measurement. […] Monovalent binding measurements were obtained by loading human or mouse Sortilin Fc fusion antigens to AHQ sensor and followed by exposure to −100 nM Sortilin antibody Fab. […] Kinetics data were fit using a 1:1 binding model in the data analysis software provided by ForteBio.

Positions count from the first letter of the chain named.

The record followed here is patent publication US20220185898A1 (Alector, published 2022).

B1: S-28 (antibody, V domains shown)
VH: EVQLVESGGGLVKPGGSLRLSCAASGFTFSSYSMNWVRQAPGKGLEWVSSISSSSNYIYYADSVKGRFTISRDNAKNSLYLQMNSLRAEDTAVYYCARGGLDRWGSFDIWGQGTMVTVSS
VL: not shown
notes: IgG
B1: the MFI in test [1] is 8560; in test [2], 21600. The Kd (usually the equilibrium constant for the complex coming apart) in test [3] worked out at 1.25 nM; in test [4] it was 0.299 nM.

B2: S-29 (antibody, V domains shown)
VH: B1 VH
VL: not shown
notes: IgG
Regarding B2, the MFI is 9600 in test [1] and 21800 in test [2]. Besides, the Kd was found to be 1.37 nM in test [3] and 0.37 nM in test [4].

B3: S-2-1 (antibody, V domains shown)
VH: QVQLVQSGAEVKKPGASVKVSCKASGYTFGAYYMHWVRQAPGQGLEWMGWINPNSGFTRYAQKFQGRVTMTRDTSISTAYMELSRLRSDDTAVYYCARGKRSSGWYEGYGMDVWGQGTTVTVSS
VL: DIQMTQSPSSLSASVGDRVTITCRASQSISSYLNWYQQKPGKAPKLLIYAASSLQSGVPSRFSGSGSGTDFTLTISSLQPEDFATYYCQQSDVSPITFGGGTKVEIK
notes: IgG
With B3, the Kd in test [5] was 2.65 nM; in test [6], 0.691 nM.

B4: S-21 (antibody, V domains shown)
VH: QVQLVQSGAEVKKPGSSVKVSCKASGGTFSSYAISWVRQAPGQGLEWMGSIIPIFGTANYAQKFQGRVTITADESTSTAYMELSSLRSEDTAVYYCARERRYDGYYYYYGMDVWGQGTTVTVSS
VL: B3 VL with S91K, D92A, V93S, S94L, I96F
notes: IgG
B4: the MFI in test [1] stood at 9380; in test [2], 22900. Moreover, the results for the Kd in test [3] and in test [4] were 2.8 nM and 1.87 nM, respectively.

B5: S-19 (antibody, V domains shown)
VH: QVQLVQSGAEVKKPGSSVKVSCKASGGTFSSYAISWVRQAPGQGLEWMGGIIPIFGTASYAQKFQGRVTITADESTSTAYMELSSLRSEDTAVYYCARESRIPGSGYYYYYGMDVWGQGTTVTVSS
VL: B3 VL with A50S, S91T, V93G, S94K, I96P
notes: IgG
With B5, the MFI was 11700 in test [1] and 28200 in test [2]. The equilibrium dissociation constant (Kd) in test [3] worked out at 0.733 nM; in test [4] it was 0.843 nM.

B6: S-2-2 Fab (Fab, V domains shown)
VH: B3 VH with G30V, F57A
VL: B3 VL
notes: Fab by papain digestion
With B6, the Kd was found to be 0.79 nM in test [7] and 2.68 nM in test [8].

B7: S-2-11 (antibody, V domains shown)
VH: B3 VH with G30L, N54S, S55W, F57S, R59S
VL: B3 VL
notes: IgG
Turning to B7, the Kd in test [5] was 1.54 nM; in test [6], 0.377 nM.

B8: S-2-2 (antibody, V domains shown)
VH: B3 VH with G30V, F57A
VL: B3 VL
notes: IgG
As to B8, in test [5], the Kd came to 2.27 nM.

B9: S-18 (antibody, V domains shown)
VH: QVQLVQSGAEVKKPGSSVKVSCKASGGTFSSYAISWVRQAPGQGLEWMGSIIPIFGTANYAQKFQGRVTITADESTSTAYMELSSLRSEDTAVYYCARDKHGRRGYYYYMDVWGKGTTVTVSS
VL: EIVLTQSPATLSLSPGERATLSCRASQSVSSYLAWYQQKPGQAPRLLIYDASNRATGIPARFSGSGSGTDFTLTISSLEPEDFAVYYCQQGANAPPRTFGGGTKVEIK
notes: IgG
On to B9, for which the MFI in test [1] was 9350; in test [2] it was 21700. Further, the Kd was 2.3 nM in test [3] and 0.475 nM in test [4].

B10: S-9 (antibody, V domains shown)
VH: QVQLVQSGAEVKKPGASVKVSCKASGYTFTSYGISWVRQAPGQGLEWMGWISAYNGNTNYAQKLQGRVTMTTDTSTSTAYMELRSLRSDDTAVYYCARDPGGYGPTLYYYYGMDVWGQGTTVTVSS
VL: EIVMTQSPATLSVSPGERATLSCRASQSVSSNLAWYQQKPGQAPRLLIYGASTRATGIPARFSGSGSGTEFTLTISSLQSEDFAVYYCQQYNIYPLTFGGGTKVEIK
notes: IgG
For the molecule B10, the MFI in test [1] was found to be 10300; in test [2], 22200. The results for the Kd in test [3] and in test [4] were 2.16 nM and 6.98 nM, respectively.

B11: S-4 (antibody, V domains shown)
VH: not shown
VL: B10 VL with Y91F, N92R, I93V, Y94L, L96P
notes: IgG
For B11, the MFI came out at 9120 in test [1] and 15700 in test [2]. The values for the Kd in test [3] and in test [4] were 1.55 nM and 4.5 nM, respectively.

B12: S-15-3 (antibody, V domains shown)
VH: QVQLVQSGAEVKKPGASVKVSCKASGYTFTSTYMSWVRQAPGQGLEWMGIINPYGGSTSYAQKFQGRVTMTRDTSTSTVYMELSSLRSEDTAVYYCARDPSGIAAAGPASRYYYGMDVWGQGTTVTVSS
VL: B10 VL with Y91A, N92R, I93L, Y94G, L96W
notes: IgG
On to B12, for which the Kd in test [5] is 17.9 nM; in test [6], 5.25 nM.

B13: S-10 (antibody, V domains shown)
VH: B10 VH
VL: EIVMTQSPATLSVSPGERATLSCRASQSVSSNLAWYQQKPGQAPRLLIYGASTRATGIPARFSGSGSGTEFTLTISSLQSEDFAVYYCQQYADWPPITFGGGTKVEIK
notes: IgG
Regarding B13, the MFI in test [1] is 8660; in test [2], 19400. Further, the Kd in test [3] was 2.29 nM; in test [4], 11 nM.

B14: S-48 (antibody, V domains shown)
VH: QVQLVESGGGVVQPGRSLRLSCAASGFTFSSYGMHWVRQAPGKGLEWVAVISYDGSNKYYADSVKGRFTISRDNSKNTLYLQMNSLRAEDTAVYYCARESGDRATLVYYYYYGMDVWGQGTTVTVSS
VL: B10 VL with G50S, I93S, Y94W, L96I
notes: IgG
Consider B14, for which the MFI was 8140 in test [1] and 11900 in test [2]. Further, the Kd was found to be 1.53 nM in test [3] and 4.96 nM in test [4].

B15: S-15-6 (antibody, V domains shown)
VH: B12 VH with T32R, Y54V
VL: B10 VL with Y91A, N92R, I93L, Y94G, L96W
notes: IgG
Regarding B15, in test [5], the Kd stood at 18.9 nM.

B16: S-15-14 (antibody, V domains shown)
VH: B12 VH with T32Q
VL: B10 VL with Y91A, N92R, I93L, Y94G, L96W
notes: IgG
Consider B16, for which the Kd in test [5] was 19.4 nM; in test [6], 5.25 nM.

B17: S-15-6 Fab (Fab, V domains shown)
VH: B12 VH with T32R, Y54V
VL: B10 VL with Y91A, N92R, I93L, Y94G, L96W
notes: Fab by papain digestion
Take B17: the Kd turned out to be 0.07 nM in test [7] and 0.678 nM in test [8].

B18: S-82-3 Fab (Fab, V domains shown)
VH: QLQLQESGPGLVKPSETLSLTCTVSGGSISSSDYYWGWIRQPPGKGLEWIGQIYYKGSTYYNPSLKSRVTISVDTSKNQFSLKLSSVTAADTAVYYCARGVGSGYSYGYRYFDYWGQGTLVTVSS
VL: EIVLTQSPGTLSLSPGERATLSCRASQSVSSSYLAWYQQKPGQAPRLLIYGASSRATGIPDRFSGSGSGTDFTLTISRLEPEDFAVYYCQQSHVSPWTFGGGTKVEIK
notes: Fab by papain digestion
With B18, the binding result in test [7] is given as “no binding”.

B19: S-82-5 Fab (Fab, V domains shown)
VH: B18 VH with S30K, D33E, Q52S, Y55R, K56A
VL: B18 VL
notes: Fab by papain digestion
Regarding B19, the binding result in test [7] is “no binding”.

B20: S-82-3 (antibody, V domains shown)
VH: B18 VH
VL: B18 VL
notes: IgG
For B20, in test [5], the binding result is listed as “no binding (tested: 0.39-50 nM antibody)”.

B21: S-82-5 (antibody, V domains shown)
VH: B18 VH with S30K, D33E, Q52S, Y55R, K56A
VL: B18 VL
notes: IgG
On to B21, for which the binding result in test [5] was “no binding (tested: 0.39-50 nM antibody)”.
